Patent publication US20210324050A1 (VANDERBILT UNIVERSITY, published 2021)

Experiments:
[1] = target: T1, GI.1 (M87661) VLPs (norovirus GI.1, UniProt Q83884 1-530; Q83885 1-212); assay: indirect ELISA on VLPs
T1 sequence (VP1): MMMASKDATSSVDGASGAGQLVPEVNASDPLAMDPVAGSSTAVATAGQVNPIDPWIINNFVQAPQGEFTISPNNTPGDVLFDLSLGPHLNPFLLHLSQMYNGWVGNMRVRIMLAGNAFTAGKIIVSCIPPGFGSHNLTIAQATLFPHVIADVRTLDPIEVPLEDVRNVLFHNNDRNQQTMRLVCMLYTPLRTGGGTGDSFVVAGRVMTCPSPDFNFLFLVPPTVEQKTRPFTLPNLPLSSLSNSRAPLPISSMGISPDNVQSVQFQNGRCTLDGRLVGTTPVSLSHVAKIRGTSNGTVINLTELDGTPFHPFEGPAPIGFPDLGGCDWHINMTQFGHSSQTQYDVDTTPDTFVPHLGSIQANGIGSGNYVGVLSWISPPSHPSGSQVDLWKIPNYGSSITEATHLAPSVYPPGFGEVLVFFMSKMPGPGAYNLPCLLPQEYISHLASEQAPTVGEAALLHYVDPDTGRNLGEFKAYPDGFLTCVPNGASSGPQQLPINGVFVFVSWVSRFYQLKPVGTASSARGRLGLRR
T1 sequence (VP2): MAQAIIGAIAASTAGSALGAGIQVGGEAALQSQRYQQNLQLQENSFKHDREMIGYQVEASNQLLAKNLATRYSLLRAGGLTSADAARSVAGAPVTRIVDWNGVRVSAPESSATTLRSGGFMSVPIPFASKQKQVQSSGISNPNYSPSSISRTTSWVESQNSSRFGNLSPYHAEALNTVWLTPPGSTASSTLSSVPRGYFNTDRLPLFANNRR

[2] = target: T2, GII.4 Sydney 2012 shell (S) domain (human norovirus GII.4 Sydney 2012, UniProt P54635 1-221 (Lordsdale virus entry), limits assumed); assay: indirect ELISA on recombinant P and S domains
T2 construct: Recombinant S domain particles (pVL1392, baculovirus, Sf9); the whole VP1 entry is named; also called GII.4 S domain
T2 chain: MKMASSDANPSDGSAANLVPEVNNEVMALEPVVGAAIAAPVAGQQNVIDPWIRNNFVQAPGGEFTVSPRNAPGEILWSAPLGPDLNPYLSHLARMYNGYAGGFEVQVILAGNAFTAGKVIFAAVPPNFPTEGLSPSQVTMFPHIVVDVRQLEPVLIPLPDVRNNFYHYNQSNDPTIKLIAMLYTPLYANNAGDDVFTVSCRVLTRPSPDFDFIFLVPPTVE

[3] = target: T3, GII.4 Houston 2002 (ABY27560.1) VLPs (human norovirus GII.4 Houston 2002, UniProt P54635 1-539); assay: ELISA on GII.4 Houston 2002 VLPs against ELISA on GII.4 Sydney 2012 VLPs
T3 construct: also called GII.4 Houston 2002 antigen; GII.4 Houston VLPs
T3 chain: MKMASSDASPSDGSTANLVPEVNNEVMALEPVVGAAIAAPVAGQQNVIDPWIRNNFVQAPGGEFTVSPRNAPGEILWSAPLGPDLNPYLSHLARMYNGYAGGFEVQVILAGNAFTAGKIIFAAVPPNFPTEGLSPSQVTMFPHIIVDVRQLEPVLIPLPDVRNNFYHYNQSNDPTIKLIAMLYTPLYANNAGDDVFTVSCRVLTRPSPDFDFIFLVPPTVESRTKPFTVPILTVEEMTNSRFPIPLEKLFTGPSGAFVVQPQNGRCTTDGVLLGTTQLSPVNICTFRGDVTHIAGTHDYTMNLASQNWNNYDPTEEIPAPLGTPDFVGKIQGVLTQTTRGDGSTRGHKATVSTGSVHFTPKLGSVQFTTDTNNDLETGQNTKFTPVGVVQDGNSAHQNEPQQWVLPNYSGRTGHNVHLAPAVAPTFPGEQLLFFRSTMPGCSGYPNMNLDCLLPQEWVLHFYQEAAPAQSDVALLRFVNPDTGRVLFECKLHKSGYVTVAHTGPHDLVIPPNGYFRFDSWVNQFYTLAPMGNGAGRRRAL

[4] = target: T3, GII.4 Houston 2002 (ABY27560.1) VLPs; assay: ELISA on GII.4 Houston 2002 VLPs
[5] = target: T4, GII.4 Sydney 2012 virus-like particles (VLPs), based on strain AFV08795.1 (human norovirus GII.4 Sydney 2012, UniProt P54635 1-538); assay: indirect ELISA on coated GII.4 Sydney 2012 VLPs
T4 construct: also called GII.4 VLPs
T4 chain: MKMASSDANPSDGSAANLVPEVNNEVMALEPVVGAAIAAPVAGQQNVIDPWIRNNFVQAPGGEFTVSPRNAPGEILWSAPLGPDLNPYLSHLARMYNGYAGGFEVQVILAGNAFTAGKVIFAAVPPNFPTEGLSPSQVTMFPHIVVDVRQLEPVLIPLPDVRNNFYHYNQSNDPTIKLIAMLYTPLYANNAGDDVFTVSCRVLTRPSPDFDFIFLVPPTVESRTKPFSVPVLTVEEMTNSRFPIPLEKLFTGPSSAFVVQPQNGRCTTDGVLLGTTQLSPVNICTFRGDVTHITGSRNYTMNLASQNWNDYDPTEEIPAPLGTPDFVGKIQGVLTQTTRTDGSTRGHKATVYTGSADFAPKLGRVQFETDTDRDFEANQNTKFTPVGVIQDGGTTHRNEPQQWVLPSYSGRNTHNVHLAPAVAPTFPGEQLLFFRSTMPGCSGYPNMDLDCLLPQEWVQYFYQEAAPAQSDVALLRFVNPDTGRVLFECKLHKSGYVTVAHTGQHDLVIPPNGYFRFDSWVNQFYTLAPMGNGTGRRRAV

B1: NORO-156.3 (antibody, V domains shown)
VH: QVQLQQWGAGLLKPSETLSLTCAVYGGSFSGYYWSWIRQPPGKGLEWIGEINHSGSTNYNPSLKSRVTISVDTSKNQFSLKLSSVTAADTAVYYCARGLMDVWGQGTLVTVSS
VL: AIRMTQSPSSFSASTGDRVTITCRASQGISSYLAWYQQKPGKAPKLLIYAASTLQSGVPSRFSGSGSGTDFTLTISCLQSEDFATYYCQQYYSYPRTFGQGTKLEIK
binding result [1]: binds | binding result [2]: no binding (tested: 500 nM)

B2: NORO-115 (antibody, V domains shown)
VH: QVQLVESGGGLVKPGGSLRLSCTASGITISGYYMSWIRQAPGKGLEWIVYINTSGRTIYYADSVKGRFSVSRDNAKESLYLQMDSLTVDDTGIYYCARDRLPASGSHWFHPWGQGTLVTVSS
VL: DIVMTQSPDSLAVSLGGRATINCKSSQSVLYTSDNKNYLAWYQQQPGQPPKLLISWASTRESGVPDRFSGSGSGTDFTLTISNLQAEDVAVYYCQQYYNSPLAFGGGTKVEIK
fold higher binding EC50 compared to GII.4 Sydney 2012 VLPs [3]: > 10 fold

B3: NORO-202A.1 (antibody, V domains shown)
VH: QVQLVQSGAEVKKPGASVKVSCKASEYTFTGYYLQWVRQAPGHGLEWMGWINPSGGTKYSQKFQGRVTMTRDTSITTVYMELSRLRSDDTAVYYCARDLLRNWGDHDAFDVWGQGTMVTVSS
VL: QSVLTQPPSASETPGQGVTISCSGSSSNIGSNFVCWYQQVPGTAPKLLIYKNNQRPSGVPDRFSGSKSGTSASLAISGLRSEDEADYYCSAWDDSLSGPVFGGGTKLTVL
binding result [1]: no binding (tested: 500 nM) | binding result [4]: binds | EC50 [5]: 0.4 µg/mL
